{"source": "patent US20230095004", "about": "(Aptitude Medical Systems, Inc., published 2023)", "key": {"[1]": {"molecular_target": "T1, VEGF-165 (VEGF-A) (Homo sapiens)", "T1 chain": "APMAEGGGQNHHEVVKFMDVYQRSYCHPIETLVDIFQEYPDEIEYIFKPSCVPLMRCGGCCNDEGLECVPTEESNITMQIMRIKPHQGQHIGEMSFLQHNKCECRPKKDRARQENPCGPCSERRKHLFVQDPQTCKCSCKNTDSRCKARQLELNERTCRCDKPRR", "assay": "flow; PBSMCT, 37 C", "conditions": "tags: recombinant; chain copies: 2; label: biotin"}, "[2]": {"molecular_target": "VEGF-121 (VEGF-A) (Homo sapiens, UniProt P15692 SEQ:1-121)", "assay": "flow; PBSMCT, 37 C", "conditions": "tags: recombinant; chain copies: 2; label: biotin"}, "[3]": {"molecular_target": "T1, VEGF-165 (VEGF-A)", "assay": "competition; VEGFR2 blocking ELISA, PBSMCT, 37 C", "conditions": "tags: R&D Systems 293-VE-050; chain copies: 2"}, "[4]": {"molecular_target": "T1, VEGF-165 (VEGF-A)", "assay": "competition; VEGF/VEGFR2 inhibition", "conditions": "tags: R&D Systems 293-VE-050; chain copies: 2"}}}
{"binder": "CUGUACAGUUUUACCAGUGAGUCGGAUCUCCGCAUAUCUGCG (ssRNA, 2'-F all nucleotides)", "values": [{"measurement": "Kd", "setting": "[1]", "result": 0.097, "unit": "nM"}, {"measurement": "Kd", "setting": "[2]", "result": 0.162, "unit": "nM"}]}
{"binder": "CUGUACAGUUUUACCAGUGAGUCGGAUCUCCGCAUAUCUGCG (ssRNA, 2'-F all)", "values": [{"measurement": "IC50", "setting": "[3]", "result": 0.056, "unit": "nM"}]}
{"binder": "ACCCUUGCUUGCGUAGCAUUUUACCAGUGAGUCGGAUCUCUGCAUGCA (ssRNA, 2'-F all nucleotides)", "values": [{"measurement": "Kd", "setting": "[1]", "result": 7.34, "unit": "nM"}, {"measurement": "Kd", "setting": "[2]", "result": 9, "unit": "nM"}]}
{"binder": "ACCCUUGCUUGCGUAGCAUUUUACCAGUGAGUCGGAUCUCUGCAUGCA (ssRNA, 2'-F all)", "values": [{"measurement": "IC50", "setting": "[3]", "result": 2.17, "unit": "nM"}]}
{"binder": "UUUUACCAGUGAGUCGGAUCUCUGCAUGCA (ssRNA, 2'-F all)", "values": [{"measurement": "IC50", "setting": "[3]", "result": 1.2, "unit": "nM"}]}
{"binder": "AMSB107.1 (ssRNA, 2'-F all) RNA: UGCCAGUGAGUCGGAUCUCCGCAUAGAUAAGCCAACAAACGUACAUUCUCUGUUAGUAUUUUCUGCG", "values": [{"measurement": "IC50", "setting": "[4]", "result": 21.5, "unit": "nM"}]}
{"binder": "CCCCAUCUGCGAAGCAGUCAGCCAGUGAGUCGGAUCUCCGCAUAUCUGCG (ssRNA, 2'-F all)", "note": "[AMS0433.6]", "values": [{"measurement": "IC50", "setting": "[3]", "result": 3.49, "unit": "nM"}]}
{"binder": "GCUGUACAGCUUUUACCAGUGAGUCGGAUCUCCGCAUAUCUGCG (ssRNA, 2'-F all nucleotides)", "values": [{"measurement": "Kd", "setting": "[1]", "result": 0.131, "unit": "nM"}, {"measurement": "Kd", "setting": "[2]", "result": 0.15, "unit": "nM"}]}
{"binder": "GCUGUACAGCUUUUACCAGUGAGUCGGAUCUCCGCAUAUCUGCG (ssRNA, 2'-F all)", "values": [{"measurement": "IC50", "setting": "[3]", "result": 0.064, "unit": "nM"}]}
{"binder": "UGCAUCUGCAUUUUACCAGUGAGUCGGAUCUCCGCAUAUCUGCG (ssRNA, 2'-F all nucleotides)", "values": [{"measurement": "Kd", "setting": "[1]", "result": 3.81, "unit": "nM"}, {"measurement": "Kd", "setting": "[2]", "result": 5.73, "unit": "nM"}]}
{"binder": "UGCAUCUGCAUUUUACCAGUGAGUCGGAUCUCCGCAUAUCUGCG (ssRNA, 2'-F all)", "values": [{"measurement": "IC50", "setting": "[3]", "result": 8.34, "unit": "nM"}]}
{"binder": "AMS0433.5 (ssRNA, 2'-F all) RNA: CACCAUGCUUGCGUAGCAUCAUCCAGUGAGUCGGAUCUCCGCAUAUCUGCG", "values": [{"measurement": "IC50", "setting": "[3]", "result": 2.5, "unit": "nM"}]}
{"binder": "ACCCUUGCUUGCGUAGCAUUUUACCAGUGAGUCGGAUCUC (ssRNA, 2'-F all)", "note": "[AMS0433.0]", "values": [{"measurement": "IC50", "setting": "[3]", "result": 27.5, "unit": "nM"}]}
{"binder": "UGCCAGUGAGUCGGAUCUCCUGUGAGAACACAG (ssRNA, 2'-F all)", "note": "[AMS0433.10]", "values": [{"measurement": "IC50", "setting": "[3]", "result": 27.2, "unit": "nM"}]}
{"binder": "AMS0433.13 (ssRNA, 2'-F all nucleotides) RNA: UUUUGUGCUUGCGUAGCAACCCUCCAGUGAGUCGGAUCUCCGCAUAUCUGCG", "values": [{"measurement": "Kd", "setting": "[1]", "result": 8.3, "unit": "nM"}, {"measurement": "Kd", "setting": "[2]", "result": 9.47, "unit": "nM"}]}
{"binder": "AMS0433.13 (ssRNA, 2'-F all) RNA: UUUUGUGCUUGCGUAGCAACCCUCCAGUGAGUCGGAUCUCCGCAUAUCUGCG", "values": [{"measurement": "IC50", "setting": "[3]", "result": 12.3, "unit": "nM"}]}
{"binder": "AMSB107.4 (ssRNA, 2'-F all) RNA: GCAUGCUUUUACCAGUGAGUCGGAUCUCCGCAUAGAUAAGCCAACAAACGUACAUUCUCUGUUAGUAUUUUCUGCG", "values": [{"measurement": "IC50", "setting": "[4]", "result": 0.081, "unit": "nM"}]}
{"binder": "AMSB107.9 (ssRNA, 2'-F all) RNA: UGCAUGCAUUACCAGUGAGUCGGAUCUCCGCAUAGAUAAGCCAACAAACGUACAUUCUCUGUUAGUAUUUUCUGCG", "values": [{"measurement": "IC50", "setting": "[4]", "result": 0.147, "unit": "nM"}]}
{"binder": "AMS0433.11 (ssRNA, 2'-F all) RNA: CACAGAGAACUGUGCCUAGCAUUUUGCCAGUGAGUCGGAUCUCCGCAUAUCUGCG", "values": [{"measurement": "IC50", "setting": "[3]", "result": 29.5, "unit": "nM"}]}
{"binder": "AMS0433.3 (ssRNA, 2'-F all nucleotides) RNA: ACCCUUGCUUGCGUAGCAUUCUGCCAGUGAGUCGGAUCUCCGCAUAUCUGCG", "values": [{"measurement": "Kd", "setting": "[1]", "result": 0.837, "unit": "nM"}, {"measurement": "Kd", "setting": "[2]", "result": 0.921, "unit": "nM"}]}
{"binder": "AMS0433.4 (ssRNA, 2'-F all nucleotides) RNA: ACCCUUGCUUGCGCAGCAUUCUGCCAGUGAGUCGGAUCUCCGCAUAUCUGCG", "values": [{"measurement": "Kd", "setting": "[1]", "result": 0.76, "unit": "nM"}, {"measurement": "Kd", "setting": "[2]", "result": 1.09, "unit": "nM"}]}
{"binder": "AMS0433.3 (ssRNA, 2'-F all) RNA: ACCCUUGCUUGCGUAGCAUUCUGCCAGUGAGUCGGAUCUCCGCAUAUCUGCG", "values": [{"measurement": "IC50", "setting": "[3]", "result": 2.1, "unit": "nM"}]}
{"binder": "AMS0433.1 (ssRNA, 2'-F all) RNA: ACCCUUGCUUGCGUAGCAUUUUACCAGUGAGUCGGAUCUCCGCAUAUCUGCG", "values": [{"measurement": "IC50", "setting": "[3]", "result": 1.73, "unit": "nM"}]}
{"binder": "AMS0433.4 (ssRNA, 2'-F all) RNA: ACCCUUGCUUGCGCAGCAUUCUGCCAGUGAGUCGGAUCUCCGCAUAUCUGCG", "values": [{"measurement": "IC50", "setting": "[3]", "result": 1.96, "unit": "nM"}]}
{"binder": "AMSB107.5 (ssRNA, 2'-F all) RNA: AUGCAUGCAUUUUUACCAGUGAGUCGGAUCUCCGCAUAGAUAAGCCAACAAACGUACAUUCUCUGUUAGUAUUUUCUGCG", "values": [{"measurement": "IC50", "setting": "[4]", "result": 0.081, "unit": "nM"}]}
{"binder": "UGCCAGUGAGUCGGAUCUCCGCAUAUCUGCGCGCAUAUCUGCG (ssRNA, 2'-F all nucleotides)", "values": [{"measurement": "Kd", "setting": "[1]", "result": 8.42, "unit": "nM"}, {"measurement": "Kd", "setting": "[2]", "result": 11.4, "unit": "nM"}]}
{"binder": "UGCCAGUGAGUCGGAUCUCCGCAUAUCUGCGCGCAUAUCUGCG (ssRNA, 2'-F all)", "values": [{"measurement": "IC50", "setting": "[3]", "result": 9.26, "unit": "nM"}]}
{"binder": "CGUAGCAUUUUGCCAGUGAGUCGGAUCUCCGCAUAUCUGCG (ssRNA, 2'-F all)", "note": "[AMS0433.8]", "values": [{"measurement": "IC50", "setting": "[3]", "result": 42.9, "unit": "nM"}]}
{"binder": "UUUUACCAGUGAGUCGGAUCUCUGCAUGCA (ssRNA, 2'-F all nucleotides)", "values": [{"measurement": "Kd", "setting": "[1]", "result": 6.65, "unit": "nM"}, {"measurement": "Kd", "setting": "[2]", "result": 10.4, "unit": "nM"}]}
{"binder": "UUUUGCAUGCAUUUUACCAGUGAGUCGGAUCUCCGCAUAUCUGCG (ssRNA, 2'-F all nucleotides)", "values": [{"measurement": "Kd", "setting": "[1]", "result": 0.039, "unit": "nM"}, {"measurement": "Kd", "setting": "[2]", "result": 0.045, "unit": "nM"}]}
{"binder": "UUUUGCAUGCAUUUUACCAGUGAGUCGGAUCUCCGCAUAUCUGCG (ssRNA, 2'-F all)", "values": [{"measurement": "IC50", "setting": "[3]", "result": 0.044, "unit": "nM"}]}
{"binder": "AMSB107.2 (ssRNA, 2'-F all) RNA: UGCCAGUGAGUCGGAUCUCCACAGUAGAUAAGCCAACAAACGUACAUUCUCUGUUAGUAUUUUCCUGUG", "values": [{"measurement": "IC50", "setting": "[4]", "result": 19.4, "unit": "nM"}]}
{"binder": "AMSB107.6 (ssRNA, 2'-F all) RNA: UGCAUGCAACCAGUGAGUCGGAUCUCCGCAUAGAUAAGCCAACAAACGUACAUUCUCUGUUAGUAUUUUCUGCG", "values": [{"measurement": "IC50", "setting": "[4]", "result": 0.551, "unit": "nM"}]}
{"binder": "UGCACUGCAUUUUACCAGUGAGUCGGAUCUCCGCAUAUCUGCG (ssRNA, 2'-F all nucleotides)", "values": [{"measurement": "Kd", "setting": "[1]", "result": 0.359, "unit": "nM"}, {"measurement": "Kd", "setting": "[2]", "result": 0.475, "unit": "nM"}]}
{"binder": "UGCACUGCAUUUUACCAGUGAGUCGGAUCUCCGCAUAUCUGCG (ssRNA, 2'-F all)", "values": [{"measurement": "IC50", "setting": "[3]", "result": 0.983, "unit": "nM"}]}
{"binder": "AMSB107.8 (ssRNA, 2'-F all) RNA: UUUUGCAUGCAUUUUACCAGUGAGUCGGAUCUCCGCAUAGAUAAGCCAACAAACGUACAUUCUCUGUUAGUAUUUUCUGCG", "values": [{"measurement": "IC50", "setting": "[4]", "result": 0.255, "unit": "nM"}]}
{"binder": "CACAGAGAACUGUGUGCCAGUGAGUCGGAUCUCCGCAUAUCUGCG (ssRNA, 2'-F all)", "note": "[AMS0433.7]", "values": [{"measurement": "IC50", "setting": "[3]", "result": 8.23, "unit": "nM"}]}
